Source: article PMC12724168, “Real-time simultaneous monitoring of multiple analytes in bacterial cultures” (Applied and Environmental Microbiology, 2025)

Legend:
[1] = Fluorescence titration of LAOBP-22C conjugates with arginine; format: binding; settings: LAOBP-22C conjugate, ligand arginine
From the text: (§1) Because of this, we decided to design and develop a biosensor for arginine, using the lysine/arginine/ornithine binding protein from Salmonella (LAOBP) ([52]). We carried out cysteine scanning by introducing four individual cysteine mutations at positions near the hinge region. The selection of cysteine positions was guided by the crystal structures of the apo and bound forms of the protein ([53]) (Fig. S1). Each of the four mutants was conjugated to six different fluorophores, and the fluorescence change upon the addition of ligand was characterized for each of the 24 protein-ligand conjugates. […] We determined the dissociation constants for all three ligands (arginine, lysine, and ornithine) using the LAOBP-22C acrylodan conjugate (Fig. 1F) and the coumarin conjugate (Fig. S2). With a large change in fluorescence and a dissociation constant of 1.5 µM for both arginine and lysine, we chose to use the LAOBP-22C acrylodan conjugate for subsequent experiments.
(§2) Fluorescence analysis of protein-fluorophore conjugates was carried out on a Jasco FP-8500 fluorometer. […] Fluorescence values were volume adjusted, and Kd values were determined by fitting the titration data using Kaleidagraph according to the following equation: […]
(§3) where F is the observed fluorescence at a given ligand concentration [L], Fo is the fluorescence in the absence of ligand, and Fmax is the fluorescence at saturation.

[2] = Fluorescence titration of LAOBP-22C conjugates with ornithine; format: binding; settings: LAOBP-22C conjugate, ligand ornithine
From the text: as §1, §2, §3

[3] = Fluorescence titration of LAOBP-22C conjugates with lysine; format: binding; settings: LAOBP-22C conjugate, ligand lysine
From the text: as §1, §2, §3

[4] = tested on: cultures of P. aeruginosa, S. aureus, E.coli, E. faecalis, and C. striatum; assay: Gel electrophoresis of biosensors after 24 h in bacterial cultures (stability); settings: 24 hours in culture, LB, supernatants
Protocol: To determine if the observed changes in fluorescence were not simply the result of degradation of the protein sensors over the course of E. coli growth, glucose, individual ligands (arabinose, ribose, glutamate, arginine, or ornithine) were added to 24-hour-old cultures containing each corresponding PBP. Immediately after the addition of the respective analyte, fluorescence was measured again (Fig. 3F).
Figure S3: Gel electrophoresis analysis of the stability of the biosensors after incubation with different bacterial species in culture for 24 hours. Left gel: TnGBP, Right gel: LAOBP. A Bio-Rad gel imager was used to detect the fluorescently labeled biosensor in each sample. In each gel, the lanes are as follows: 1. MW standard, 2. Pure protein, 3. Pure protein in LB with no bacteria, 4 – 8: supernatants after 24 hours of cultures of P. aeruginosa, S. aureus-GBP, E.coli, E. faecalis, and C. striatum.

[5] = Fluorescence change of LAOBP-22C fluorophore conjugates upon addition of ligand; format: binding; settings: LAOBP-22C mutant conjugates, ligand not given
From the text: as §1
Fluorescence analysis of protein-fluorophore conjugates was carried out on a Jasco FP-8500 fluorometer. UV-clear, four-sided cuvettes containing 200–300 nM labeled protein in working buffer were used. The following parameters were used for each of the fluorophores: Acrylodan (excitation: 359 nm, emission: 440–550 nm), Coumarin (excitation: 390 nm, emission: 430–520 nm), IANBD (excitation: 460 nm, emission: 500–600 nm), Alexa488 (excitation: 490 nm, emission: 500–560 nm), TMR (excitation: 555 nm, emission: 570–620 nm), and Texas Red (excitation: 595 nm, emission: 600–660 nm). Titrations were carried out by adding increasing amounts of ligand while monitoring changes in emission at the maximum wavelength. Fluorescence values were volume adjusted, and Kd values were determined by fitting the titration data using Kaleidagraph according to the following equation: […]

Molecule	Kd [1] [µM]	Kd [2] [µM]	Kd [3] [µM]	stability of the biosensor in bacterial culture (gel electrophoresis) [4]	% Change [5]
LAOBP-22C Acrylodan (conjugate, UniProt P02911 23-260, looked up, variant A22C, Acrylodan label) Lysine/arginine/ornithine-bind …: ALPQTVRIGTDTTYAPFSSKDCKGEFIGFDIDLGNEMCKRMQVKCTWVASDFDALIPSLKAKKIDAIISSLSITDKRQQEIAFSDKLYAADSRLIAAKGSPIQPTLESLKGKHVGVLQGSTQEAYANDNWRTKGVDVVAYANQDLIYSDLTAGRLDAALQDEVAASEGFLKQPAGKEYAFAGPSVKDKKYFGDGTGVGLRKDDTELKAAFDKALTELRQDGTYDKMAKKYFDFNVYGD	1.5 ± 0.1	38.9 ± 1.8	1.5 ± 0.1	two bands are visible	−50%
LAOBP-22C Texas Red (conjugate, UniProt P02911 23-260, looked up, variant A22C, Texas Red label) Lysine/arginine/ornithine-bind …: ALPQTVRIGTDTTYAPFSSKDCKGEFIGFDIDLGNEMCKRMQVKCTWVASDFDALIPSLKAKKIDAIISSLSITDKRQQEIAFSDKLYAADSRLIAAKGSPIQPTLESLKGKHVGVLQGSTQEAYANDNWRTKGVDVVAYANQDLIYSDLTAGRLDAALQDEVAASEGFLKQPAGKEYAFAGPSVKDKKYFGDGTGVGLRKDDTELKAAFDKALTELRQDGTYDKMAKKYFDFNVYGD					−22%
LAOBP-22C TMR (conjugate, UniProt P02911 23-260, looked up, variant A22C, TMR label) Lysine/arginine/ornithine-bind …: ALPQTVRIGTDTTYAPFSSKDCKGEFIGFDIDLGNEMCKRMQVKCTWVASDFDALIPSLKAKKIDAIISSLSITDKRQQEIAFSDKLYAADSRLIAAKGSPIQPTLESLKGKHVGVLQGSTQEAYANDNWRTKGVDVVAYANQDLIYSDLTAGRLDAALQDEVAASEGFLKQPAGKEYAFAGPSVKDKKYFGDGTGVGLRKDDTELKAAFDKALTELRQDGTYDKMAKKYFDFNVYGD					−10%
LAOBP-22C Alexa488 (conjugate, UniProt P02911 23-260, looked up, variant A22C, Alexa488 label) Lysine/arginine/ornithine-bind …: ALPQTVRIGTDTTYAPFSSKDCKGEFIGFDIDLGNEMCKRMQVKCTWVASDFDALIPSLKAKKIDAIISSLSITDKRQQEIAFSDKLYAADSRLIAAKGSPIQPTLESLKGKHVGVLQGSTQEAYANDNWRTKGVDVVAYANQDLIYSDLTAGRLDAALQDEVAASEGFLKQPAGKEYAFAGPSVKDKKYFGDGTGVGLRKDDTELKAAFDKALTELRQDGTYDKMAKKYFDFNVYGD					+8%
LAOBP-22C IANBD (conjugate, UniProt P02911 23-260, looked up, variant A22C, IANBD label) Lysine/arginine/ornithine-bind …: ALPQTVRIGTDTTYAPFSSKDCKGEFIGFDIDLGNEMCKRMQVKCTWVASDFDALIPSLKAKKIDAIISSLSITDKRQQEIAFSDKLYAADSRLIAAKGSPIQPTLESLKGKHVGVLQGSTQEAYANDNWRTKGVDVVAYANQDLIYSDLTAGRLDAALQDEVAASEGFLKQPAGKEYAFAGPSVKDKKYFGDGTGVGLRKDDTELKAAFDKALTELRQDGTYDKMAKKYFDFNVYGD					-8%
